These results are taken from PMC4300558 (Cell Communication and Signaling : CCS, 2015).

Assay [1] has as its target prolactin receptor (Homo sapiens) (UniProt P16471). The conditions noted are these: cited from earlier work.
The target is the same in assay [2]. As to conditions: cited from earlier work. This is another data set of the same source.
Assay [3] deals with T1, extracellular domain of the human prolactin receptor (human, UniProt P16471, biotin (site not stated; in the phage ELISA)).
T1 construct: prolactin receptor, human, extracellular domain (two tandem fibronectin domains FN1 and FN2); No methods in the main text; also called hPRL-R; hPRL-R ECD
The assay can be described thus: SPR; Biacore 2000; dissociation constant calculated from the on and off rates. As to conditions: both partners purified.

Assay [4] has as its target T2, extracellular domain of the human prolactin receptor (human, UniProt P16471 25-234, biotin (site not stated; in the phage ELISA)).
T2 construct: prolactin receptor, human, extracellular domain (two tandem fibronectin domains FN1 and FN2); No methods in the main text; also called hPRL-R; hPRL-R ECD
T2 sequence (looked up): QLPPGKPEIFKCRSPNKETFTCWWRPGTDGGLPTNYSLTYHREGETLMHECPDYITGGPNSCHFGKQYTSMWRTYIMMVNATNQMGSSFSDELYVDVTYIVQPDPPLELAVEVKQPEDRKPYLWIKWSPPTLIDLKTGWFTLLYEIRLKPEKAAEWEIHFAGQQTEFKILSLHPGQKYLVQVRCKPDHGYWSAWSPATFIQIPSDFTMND
The assay is described as follows: ELISA; competition phage ELISA; biotinylated receptor immobilised on streptavidin plates; hGH or PRL titrated against phage-displayed sAB. The conditions noted are these: both partners purified. For orientation: In an ELISA, binding on a coated surface is turned into a signal by an enzyme label.

For assay [5], the target named is T3, extracellular domain of the human prolactin receptor (human, UniProt P16471 25-234, biotin (site not stated; in the phage ELISA)).
T3 chain: T2 sequence (looked up)
The assay is described as follows: ELISA; competition with phage-displayed sAB A10.

Assay [6] concerns the target T3, extracellular domain of the human …. The assay is described as follows: ELISA; competition with phage-displayed sAB A9.
Assay [7] has the same target. The assay can be described thus: ELISA; competition with phage-displayed sAB A8.

Read-outs that look alike come from different tables or passages of the source.

With prolactin (from UniProt P01236), the Kd – broadly, a measure of binding affinity in units of concentration – in assay [1] was 6 nM.
With growth hormone (from UniProt P01241), the Kd in assay [2] is 1 nM.

B1: synthetic antibody (sAB) A8 (Fab, V domains shown)
VH: EVQLVESGGGLVQPGGSLRLSCAASGFNFSSSSMHWVRQAPGQGLEWVAYISPYYGSTSYADSVKGRFTISADTSKNTAYLQMNSLRAEDTAVYYCARSYGYVYWNAYSSGMDYWGQGTLVTVSS
VL: DIQMTQSPSSLSASVGDRVTITCRASQSVSSAVAWYQQKPGKAPKLLIYSASSLYSGVPSRFSGSRSGTDFTLTISSLQPEDFATYYCQQYYSYYYPFTFGQGTKVEIK
notes: Fab scaffold before loop H1; heavy chain loop 1 (H1), randomized loop; Fab scaffold between H1 and H2; heavy chain loop 2 (H2), randomized loop; Fab scaffold between H2 and H3; heavy chain loop 3 (H3), randomized loop; Fab scaffold after H3 (rest of VH and CH1); Fab scaffold before loop L3; light chain loop 3 (L3), randomized loop; Fab scaffold after L3 (rest of VL and CL); Only the four …
For the molecule B1, in assay [3], the dissociation constant Kd is 5.6 nM; the koff (usually the rate constant with which the complex falls apart) is 0.00054 s⁻¹; the kon (in general, the second-order rate constant of association) is 96000 M⁻¹ s⁻¹.

B2: human prolactin (ligand, UniProt P01236 29-227, looked up)
chain: LPICPGGAARCQVTLRDLFDRAVVLSHYIHNLSSEMFSEFDKRYTHGRGFITKAINSCHTSSLATPEDKEQAQQMNQKDFLSLIVSILRSWNEPLYHLVTEVRGMQEAPEAILSKAVEIEEQTKRLLEGMELIVSQVHPETKENEIYPVWSGLPSLQMADEESRLSAYYNLLHCLRRDSHKIDNYLKLLKCRIIHNNNC
notes: prolactin, human; Labelled with cy5 in the internalization experiment; also called hPRL; PRL
In the case of B2, the binding result in assay [4] is listed as “binds”. Besides, the figures for the IC50 in assay [5], in assay [6] and in assay [7] were 9 nM, 13 nM and 11 nM, respectively.
